Our source for the binding result and binding signal values is article PMC12528421.

Holding throughout (assay): EMSA
On the technique in general: Mobility shift assays separate free from complexed probe on a gel.

Series [1] concerns the target T1, GST-STAT3;Flag-AS160 (human;human, UniProt P40763;O60343 1-770;1-1298, |).
The target of another series is GST-STAT3 (human, UniProt P40763 1-770).
For the next series, the target named is T2, Flag-AS160 (human, UniProt O60343 1-1298).
T2 sequence: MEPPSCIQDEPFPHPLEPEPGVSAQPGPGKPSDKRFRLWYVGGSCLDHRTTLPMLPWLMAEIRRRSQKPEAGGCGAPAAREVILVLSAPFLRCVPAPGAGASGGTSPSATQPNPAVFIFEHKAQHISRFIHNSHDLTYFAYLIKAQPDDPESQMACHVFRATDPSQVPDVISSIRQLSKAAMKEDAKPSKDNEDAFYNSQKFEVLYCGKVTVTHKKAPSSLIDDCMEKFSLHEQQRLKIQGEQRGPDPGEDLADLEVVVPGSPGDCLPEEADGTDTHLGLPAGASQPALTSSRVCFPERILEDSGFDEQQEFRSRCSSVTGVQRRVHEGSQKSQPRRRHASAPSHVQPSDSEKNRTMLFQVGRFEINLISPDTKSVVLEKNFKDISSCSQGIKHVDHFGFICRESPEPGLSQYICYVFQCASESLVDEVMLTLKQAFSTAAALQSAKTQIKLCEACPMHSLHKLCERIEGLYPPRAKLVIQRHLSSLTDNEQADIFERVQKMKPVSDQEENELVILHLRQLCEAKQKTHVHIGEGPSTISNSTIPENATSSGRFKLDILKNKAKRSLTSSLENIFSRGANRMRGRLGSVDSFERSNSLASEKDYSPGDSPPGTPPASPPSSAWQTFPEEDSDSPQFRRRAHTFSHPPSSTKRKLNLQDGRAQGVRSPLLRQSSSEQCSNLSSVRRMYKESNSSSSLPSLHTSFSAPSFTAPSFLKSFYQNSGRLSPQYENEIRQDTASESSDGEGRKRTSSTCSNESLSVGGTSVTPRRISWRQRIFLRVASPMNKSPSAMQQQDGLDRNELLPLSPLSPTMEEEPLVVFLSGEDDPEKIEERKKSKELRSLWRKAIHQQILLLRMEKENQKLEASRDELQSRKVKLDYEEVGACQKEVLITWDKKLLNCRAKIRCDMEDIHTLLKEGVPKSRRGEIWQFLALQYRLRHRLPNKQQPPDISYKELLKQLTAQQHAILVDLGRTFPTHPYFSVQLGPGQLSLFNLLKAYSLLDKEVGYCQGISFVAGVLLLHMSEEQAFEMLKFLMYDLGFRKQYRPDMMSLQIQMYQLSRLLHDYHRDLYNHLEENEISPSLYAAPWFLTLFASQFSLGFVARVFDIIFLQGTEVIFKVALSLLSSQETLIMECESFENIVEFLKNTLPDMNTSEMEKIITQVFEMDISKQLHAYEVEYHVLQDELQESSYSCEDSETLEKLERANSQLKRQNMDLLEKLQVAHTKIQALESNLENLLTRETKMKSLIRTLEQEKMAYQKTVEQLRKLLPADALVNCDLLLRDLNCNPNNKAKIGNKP

The target of series [2] is T1, GST-STAT3;Flag-AS160. The source holds these as a separate data set.

Sequence of GST-STAT3 (P40763 whole entry): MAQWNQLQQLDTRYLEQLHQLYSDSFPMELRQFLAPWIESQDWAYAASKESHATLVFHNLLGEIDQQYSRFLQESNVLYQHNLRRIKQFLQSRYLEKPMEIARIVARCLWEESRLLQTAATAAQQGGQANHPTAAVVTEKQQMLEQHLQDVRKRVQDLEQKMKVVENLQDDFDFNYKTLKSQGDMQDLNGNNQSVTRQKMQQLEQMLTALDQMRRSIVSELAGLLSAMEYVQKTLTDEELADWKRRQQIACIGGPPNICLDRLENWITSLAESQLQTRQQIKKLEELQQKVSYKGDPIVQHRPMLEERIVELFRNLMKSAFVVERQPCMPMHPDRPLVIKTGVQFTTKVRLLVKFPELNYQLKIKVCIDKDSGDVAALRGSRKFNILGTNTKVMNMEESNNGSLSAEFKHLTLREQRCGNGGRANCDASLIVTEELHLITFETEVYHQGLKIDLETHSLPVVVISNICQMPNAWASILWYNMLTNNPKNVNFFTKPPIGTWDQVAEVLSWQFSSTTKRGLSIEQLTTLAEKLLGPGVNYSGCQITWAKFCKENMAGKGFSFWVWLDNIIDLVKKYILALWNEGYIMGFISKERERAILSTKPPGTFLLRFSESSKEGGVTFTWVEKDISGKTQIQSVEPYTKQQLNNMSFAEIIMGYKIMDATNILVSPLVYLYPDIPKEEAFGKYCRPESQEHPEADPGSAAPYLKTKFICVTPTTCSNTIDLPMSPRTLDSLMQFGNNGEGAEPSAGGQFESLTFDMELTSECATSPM
T1 sequence (P40763 whole entry, one chain of several): as the sequence (P40763 whole entry) above

B1: Myod1 promoter bind site 2 probe (dsDNA)
DNA 1: ACATTGTTCCTGGATATGACATTGTTCCTGGATATGACATTGTTCCTGGATATGA
DNA 2: TCATATCCAGGAACAATGTCATATCCAGGAACAATGTCATATCCAGGAA
In the case of B1, the results for the binding result with GST-STAT3;Flag-AS160 [1], in the series with GST-STAT3 and in the series with Flag-AS160 were “binds”, “binds” and “no binding”, respectively.

B2: Myod1 promoter bind site 3 probe (dsDNA)
DNA 1: CAGATATTCTCTGAGCCATTCCCAGATGAGATATTCTCTGAGCCATTCCCAGATGG
DNA 2: CCATCTGGGAATGGCTCAGAGAATATCTCATCTGGGAATGGCTCAGAGAAT
Consider B2, for which the binding result is reported as “binds” in the series with GST-STAT3;Flag-AS160 [1], “binds” in the series with GST-STAT3 and “no binding” in the series with Flag-AS160.

B3: Myod1 promoter bind site 1 probe (dsDNA)
DNA 1: ATTGGATTCCTGGCATCCGTTGGATTCCTGGCATCCGTTGGATTCCTGGCATCCG
DNA 2: CGGATGCCAGGAATCCAACGGATGCCAGGAATCCAACGGATGCCAGGAA
B3: the binding result in the series with GST-STAT3;Flag-AS160 [1] was “binds”; with GST-STAT3 it was “binds”; with Flag-AS160, “no binding”.

B4: Pax7 promoter bind site 2 probe (dsDNA)
DNA 1: ATCCCATCCCCGGAAGCCCTCCCATCCCCGGAAGCCCTCCCATCCCCGGAAGCCC
DNA 2: GGGCTTCCGGGGATGGGAGGGCTTCCGGGGATGGGAGGGCTTCCGGGGA
As for B4, the binding result in the series with GST-STAT3;Flag-AS160 [1] was “binds”; with GST-STAT3, “binds”; with Flag-AS160 it was “no binding”.

B5: Classical STAT3 motif probe (dsDNA)
DNA 1: GATCCTTCTGGGAATTCCGATCCTTCTGGGAATTCCGATCCTTCTGGGAATTCC
DNA 2: GGAATTCCCAGAAGGATCGGAATTCCCAGAAGGATCGGAATTCCCAGA
On to B5, for which the binding result with GST-STAT3 is reported as “binds”; in the series with Flag-AS160, “no binding”. In addition, in the series with GST-STAT3;Flag-AS160 [2], the binding signal was greater than 2 fold vs STAT3 alone.

B6: Pax7 promoter bind site 3 probe (dsDNA)
DNA 1: AATTCTTCCGGGGATGTCAATTCTTCCGGGGATGTCAATTCTTCCGGGGATGTC
DNA 2: GACATCCCCGGAAGAATTGACATCCCCGGAAGAATTGACATCCCCGGA
Take B6: the binding result is recorded as “binds” with GST-STAT3;Flag-AS160 [1], “binds” with GST-STAT3 and “no binding” in the series with Flag-AS160.

B7: Pax7 promoter bind site 1 probe (dsDNA)
DNA 1: ATATGTTTACAGAAAGACATATGTTTACAGAAAGACATATGTTTACAGAAAGACA
DNA 2: TGTCTTTCTGTAAACATATGTCTTTCTGTAAACATATGTCTTTCTGTAA
For B7, the binding result with GST-STAT3;Flag-AS160 [1] is reported as “binds”; with GST-STAT3, “binds”; with Flag-AS160 it was “no binding”.
